Biological target: T1, human CD123-Fc-His fusion protein (internal source) (human, UniProt P26951 19-305)
T1 construct: not shown: Fc and His tag
T1 sequence (looked up): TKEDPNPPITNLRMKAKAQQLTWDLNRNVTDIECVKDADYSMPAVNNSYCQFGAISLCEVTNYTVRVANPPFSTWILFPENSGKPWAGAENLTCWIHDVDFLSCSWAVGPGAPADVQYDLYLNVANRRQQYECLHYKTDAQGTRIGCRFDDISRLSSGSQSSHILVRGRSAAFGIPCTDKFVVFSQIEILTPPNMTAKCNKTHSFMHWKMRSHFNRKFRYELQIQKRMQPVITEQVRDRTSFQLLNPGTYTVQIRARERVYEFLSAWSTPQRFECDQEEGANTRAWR
Test: SPR, Biacore 8K; CD123-Fc-His captured by anti-His, antibody as analyte, 1:1 Langmuir fit
Protocol: Binding of antigens to the antibody constructs was measured using surface plasmon resonance (SPR) with a BIAcore 8K instrument (GE Healthcare) with HBS-EP+ buffer (GE Healthcare). For binding kinetics and affinity determination human CD3εδ-Fc-His and human CD123-Fc-His fusion proteins (both from internal source) were used as antigens. The anti-His capture antibody (His capture kit, GE Life Sciences) was immobilized via primary amine groups (11000 RU) on a research grade CM5 chip (GE Life Sciences) using standard procedures. Antigens were captured by the anti-His capture chip surface at a flow rate of 10 μL/min for 90 sec to reach antibody binding levels between 10 and 30 RU. […] Dissociation was measured at 30 μL/min by injection of HBS-EP+ buffer for 1200 sec. The chip surface was regenerated by inject of regeneration buffer (His capture kit, GE Life Sciences). Sensorgrams were double referenced with a blank chip surface and H BS-EP+ buffer blanks. Data were fitted with a 1:1 Langmuir binding model for determination of kinetic and affinity constants ka, kd and KD using Biacore 8K Evaluation software v1.11.7442 (GE Healthcare).

B1: anti-CD3ε × anti-CD123 Wild Type (ID 33) (bispecific antibody)
light 1: not shown
heavy 1: not shown
heavy 2: EVQLQQSGPELVKPGASVKMSCKASGYTFTDYYMKWVKQSHGKSLEWIGDIIPSNGATFYNQKFKGKATLTVDRSSSTAYMHLNSLTSEDSAVYYCTRSHLLRASWFAYWGQGTLVTVSAASTKGPSVFPLAPSSKSTSGGTAALGCLVKDYFPEPVTVSWNSGALTSGVHTFPAVLQSSGLYSLSSVVTVPSSSLGTQTYICNVNHKPSNTKVDKKVEPKSCDKTHTCPPCPAPEAAGGPSVFLFPPKPKDTLMISRTPEVTCVVVDVSHEDPEVKFNWYVDGVEVHNAKTKPREEQYNSTYRVVSVLTVLHQDWLNGKEYKCKVSNKALPAPIEKTISKAKGQPREPQVCTLPPSRDELTKNQVSLSCAVKGFYPSDIAVEWESNGQPENNYKTTPPVLDSDGSFFLVSKLTVDKSRWQQGNVFSCSVMHEALHNRFTQKSLSLSPG
light 2: DFVMTQSPSSLTVTAGEKVTMSCKSSQSLLNSGNQKNYLTWYLQKPGQPPKLLIYWASTRESGVPDRFTGSGSGTDFTLTISSVQAEDLAVYYCQNDYSYPYTFGGGTKLEIKRTVAAPSVFIFPPSDEQLKSGTASVVCLLNNFYPREAKVQWKVDNALQSGNSQESVTEQDSKDSTYSLSSTLTLSKADYEKHKVYACEVTHQGLSSPVTKSFNRGEC
notes: Wild type bispecific IgG (first anti-CD3ε arm)
  Kd: 0.212 nM

B2: anti-CD3ε-dsTrasKO2 × anti-CD123 (ID 35) (bispecific antibody)
light 1: not shown
heavy 1: not shown
heavy 2: B1 heavy 2
light 2: B1 light 2
notes: CD3ε arm is the pseudoFab (dsTrasKO2); also called anti-CD3E-dsTrasKO2 × anti-CD123
  Kd: 0.257 nM

B3: anti-CD3ε × anti-CD123 Wild Type (ID 36, alternative anti-CD3ε binding domain) (bispecific antibody)
light 1: DIVMTQTPLSLSVTPGQPASISCKSSQSLVHENLQTYLSWYLQKPGQSPQSLIYKVSNRFSGVPDRFSGSGSGTDFTLKISRVEAEDVGVYYCGQGTQYPFTFGSGTKVEIKRTVAAPSVFIFPPSDEQLKSGTASVVCLLNNFYPREAKVQWKVDNALQSGNSQESVTEQDSKDSTYSLSSTLTLSKADYEKHKVYACEVTHQGLSSPVTKSFNRGEC
heavy 1: not shown
heavy 2: B1 heavy 2
light 2: B1 light 2
  Kd: 0.352 nM

B4: anti-TNP × anti-CD123 Negative control Wild Type (ID 42) (bispecific antibody)
light 1: DVVMTQSPLSLPVTLGQPASISCRSSQSLVHSIGNTYLHWYQQRPGQSPRLLIYKVSNRFSGVPDRFSGSGSGTDFTLKISRVEAEDVGVYYCSQSTHVPFTFGQGTKLEIKRTVAAPSVFIFPPSDEQLKSGTASVVCLLNNFYPREAKVQWKVDNALQSGNSQESVTEQDSKDSTYSLSSTLTLSKADYEKHKVYACEVTHQGLSSPVTKSFNRGEC
heavy 1: not shown
heavy 2: B1 heavy 2
light 2: B1 light 2
  Kd: 0.231 nM

B5: anti-CD3ε × anti-CD123-dsTrasKO2 (ID 34) (bispecific antibody)
light 1: not shown
heavy 1: not shown
heavy 2: EVQLQQSGPELVKPGASVKMSCKASGYTFTDYYMKWVKQSHGKSLEWIGDIIPSNGATFYNQKFKGKATLTVDRSSSTAYMHLNSLTSEDSAVYYCTRSHLLRASWFAYWGQGTLVTVSAGGGGSGGGGSEVQLVESGGGLVQPGGSLRLSCAASGFNIKDTYIHWVRQAPGKCLEWVAEIYPTNGYTEYADSVKGRFTISADTSKNTAYLQMNSLRAEDTAVYYCSRWGGDGFYAMDYWGQGTLVTVSSDKTHTCPPCPAPEAAGGPSVFLFPPKPKDTLMISRTPEVTCVVVDVSHEDPEVKFNWYVDGVEVHNAKTKPREEQYNSTYRVVSVLTVLHQDWLNGKEYKCKVSNKALPAPIEKTISKAKGQPREPQVCTLPPSRDELTKNQVSLSCAVKGFYPSDIAVEWESNGQPENNYKTTPPVLDSDGSFFLVSKLTVDKSRWQQGNVFSCSVMHEALHNRFTQKSLSLSPG
light 2: not shown
  Kd: 0.239 nM

B6: anti-CD3ε × anti-CD123-dsTrasKO2 (ID 37, alternative anti-CD3ε binding domain) (bispecific antibody)
light 1: B3 light 1
heavy 1: not shown
heavy 2: B5 heavy 2
light 2: not shown
notes: also called anti-CD3ε × CD123-dsTrasKO2
  Kd: 0.386 nM

B7: anti-TNP × anti-CD123-dsTrasKO2 Negative control (ID 43) (bispecific antibody, human IgG1, kappa, L234A L235A)
light 1: B4 light 1
heavy 1: not shown
heavy 2: B5 heavy 2
light 2: not shown
  Kd: 0.546 nM

Source: patent US20230391888A1 (Sanofi, published 2023)
